Measurements as given in publication PMC6175910.

Key:
[1] = target: Msm RbpA/sigmaA RNAP holoenzyme (wild type) (Mycobacterium smegmatis (strain MGM6029), UniProt A0QSL8;P60281;A0QS66;A0QWT1;A0QW02;A0QZ11 1-350;1-1169;1-1317;1-107;1-466;1-114); assay: X-ray crystallography (3.05 A); Rif soaked in; Footprinting: 10 mM Tris-HCl pH 8, 10 mM K-glutamate, 5 mM MgCl2, 0.1 mM DTT, 15 ug/mL BSA, 37 C, 400 nM RNAP; crystals: 0.1 M Bis-Tris pH 6.0, 0.2 M LiSO4, 16% PEG 3350, 2.5% ethylene glycol, 22 C; details: protein: recombinant; tags: beta' C-terminal ppx-His10; chain copies: 2;1;1;1;1;1; 3' overhang 5 nt on strand 1 (upstream fork), other end blunt
[2] = target: Msm RbpA/sigmaA RNAP holoenzyme, beta S447L (Mycobacterium smegmatis (strain MGM6029), UniProt A0QSL8;P60281;A0QS66;A0QWT1;A0QW02;A0QZ11 1-350;1-1169;1-1317;1-107;1-466;1-114, S447L); assay: X-ray crystallography (3.45 A); Kang A soaked in; Footprinting: 10 mM Tris-HCl pH 8, 10 mM K-glutamate, 5 mM MgCl2, 0.1 mM DTT, 15 ug/mL BSA, 37 C, 400 nM RNAP; crystals: 0.1 M Bis-Tris pH 6.0, 0.2 M LiSO4, 16% PEG 3350, 2.5% ethylene glycol, 22 C; details: protein: recombinant; tags: beta' C-terminal ppx-His10; chain copies: 2;1;1;1;1;1

B1: Usfork_T10 upstream fork promoter DNA (dsDNA)
DNA 1: GCTTGACAAAAGTGTTAAATTGTGCTATACT
DNA 2: AGCACAATTTAACACTTTTGTCAAGC
**Q.** Does B1 bind [1]?
**A.** Result: binds

**Q.** Does B1 bind [2]?
**A.** Result: binds
